Assay results reported in ChEMBL document CHEMBL1221251, “Factorizing the role of a critical leucine residue in the binding of substrate to human 20alpha-hydroxysteroid dehydrogenase (AKR1C1): molecular modeling and kinetic studies of the Leu308Val mutant enzyme” (Bioorg Med Chem Lett, 2010).
Numbering of substitutions follows the chain as printed. Numbers in names are those of the source.

Experiments:
[1] = test system: Aldo-keto reductase family 1 member C1 (Homo sapiens), Q04828 [UNDEFINED MUTATION]; assay: Ratio of Km for human recombinant AKR1C1 Leu308Val mutant to Km for human recombinant wild type AKR1C1
[2] = test system: Aldo-keto reductase family 1 member C1 (Homo sapiens), Q04828 [UNDEFINED MUTATION]; assay: Ratio of Kcat/Km for human recombinant AKR1C1 Leu308Val mutant to Kcat/Km for human recombinant wild type AKR1C1
[3] = test system: Aldo-keto reductase family 1 member C1 (Homo sapiens), Q04828 [UNDEFINED MUTATION]; assay: Ratio of Km for human recombinant AKR1C1 Leu308Ala mutant to Km for human recombinant wild type AKR1C1
[4] = test system: Aldo-keto reductase family 1 member C1 (Homo sapiens), Q04828 [UNDEFINED MUTATION]; assay: Ratio of Kcat/Km for human recombinant AKR1C1 Leu308Ala mutant to Kcat/Km for human recombinant wild type AKR1C1
[5] = biological target: T1, Aldo-keto reductase family 1 member C1 (Homo sapiens) (UniProt Q04828); assay: Activity at human recombinant wild type AKR1C1 expressed in Escherichia coli JM109 after 15 mins
[6] = biological target: T1, Aldo-keto reductase family 1 member C1 …; assay: Ratio of kcat/km for human recombinant wild type AKR1C1 expressed in Escherichia coli JM109 after 15 mins
[7] = substrate: CC(=O)[C@H]1CC[C@H]2[C@@H]3CC[C@@H]4C[C@H](O)CC[C@]4(C)[C@H]3CC[C@]12C; assay: (§1) Ratio of kcat/km for human recombinant wild type AKR1C1 expressed in Escherichia coli JM109 after 15 mins
[8] = substrate: C[C@@H](O)[C@H]1CC[C@H]2[C@@H]3CC[C@H]4C[C@H](O)CC[C@]4(C)[C@H]3CC[C@]12C; assay: as §1
[9] = substrate: CC(=O)[C@H]1CC[C@H]2[C@@H]3CC[C@@H]4C[C@H](O)CC[C@]4(C)[C@H]3CC[C@]12C; assay: (§2) Activity at human recombinant wild type AKR1C1 expressed in Escherichia coli JM109 after 15 mins
[10] = substrate: C[C@@H](O)[C@H]1CC[C@H]2[C@@H]3CC[C@H]4C[C@H](O)CC[C@]4(C)[C@H]3CC[C@]12C; assay: as §2
[11] = substrate: CC(=O)[C@H]1CC[C@H]2[C@@H]3CC[C@@H]4C[C@H](O)CC[C@]4(C)[C@H]3CC[C@]12C; assay: (§3) Ratio of kcat/km for human recombinant AKR1C1 Leu308Val mutant expressed in Escherichia coli JM109 after 15 mins
[12] = substrate: C[C@@H](O)[C@H]1CC[C@H]2[C@@H]3CC[C@H]4C[C@H](O)CC[C@]4(C)[C@H]3CC[C@]12C; assay: as §3
[13] = substrate: CC(=O)[C@H]1CC[C@H]2[C@@H]3CC[C@@H]4C[C@H](O)CC[C@]4(C)[C@H]3CC[C@]12C; assay: (§4) Activity at human recombinant AKR1C1 Leu308Val mutant expressed in Escherichia coli JM109 after 15 mins
[14] = substrate: C[C@@H](O)[C@H]1CC[C@H]2[C@@H]3CC[C@H]4C[C@H](O)CC[C@]4(C)[C@H]3CC[C@]12C; assay: as §4

CC(=O)[C@H]1CC[C@H]2[C@@H]3CC[C@@H]4C[C@H](O)CC[C@]4(C)[C@H]3CC[C@]12C
Ratio [1]: 2
Ratio [2]: 0.2

C[C@@H](O)[C@H]1CC[C@H]2[C@@H]3CC[C@H]4C[C@H](O)CC[C@]4(C)[C@H]3CC[C@]12C
Ratio [1]: 0.4
Ratio [2]: 7

O[C@H]1CCCc2ccccc21
Ratio [3]: 67
Ratio [4]: 0.01
Ratio [1]: 2
Ratio [2]: 0.2

B1: Aldo-keto reductase family 1 member C1 (Homo sapiens), Q04828 (protein)
chain: MDSKYQCVKLNDGHFMPVLGFGTYAPAEVPKSKALEATKLAIEAGFRHIDSAHLYNNEEQVGLAIRSKIADGSVKREDIFYTSKLWCNSHRPELVRPALERSLKNLQLDYVDLYLIHFPVSVKPGEEVIPKDENGKILFDTVDLCATWEAVEKCKDAGLAKSIGVSNFNRRQLEMILNKPGLKYKPVCNQVECHPYFNQRKLLDFCKSKDIVLVAYSALGSHREEPWVDPNSPVLLEDPVLCALAKKHKRTPALIALRYQLQRGVVVLAKSYNEQRIRQNVQVFEFQLTSEEMKAIDGLNRNVRYLTLDIFAGPPNYPFSDEY
Km [5]: 7 µM⁻¹
kcat/Km [6]: 61700 M⁻¹ s⁻¹
kcat/Km [7]: 61700 M⁻¹ s⁻¹
kcat/Km [8]: 40000 M⁻¹ s⁻¹
Km [9]: 7 µM⁻¹
Km [10]: 0.9 µM⁻¹

B2: Aldo-keto reductase family 1 member C1 (Homo sapiens), Q04828 L308V (protein)
chain: B1 chain with L308V
kcat/Km [11]: 13300 M⁻¹ s⁻¹
kcat/Km [12]: 267000 M⁻¹ s⁻¹
Km [13]: 16 µM⁻¹
Km [14]: 0.4 µM⁻¹
